Reference: patent US20160096874A1, “MRG RECEPTOR MODULATORS” (BAYER PHARMA AKTIENGESELLSCHAFT, priority 2013, published 2016)
Entries after “also recorded” stand apart in the source; their conditions may differ. Peptide text beside a SMILES is read from it.

Key:
human MrgX2 = biological target: T1, human MrgX2 (Homo sapiens, UniProt Q96LB1); test: Fluo8 assay, intracellular Calcium release in CHEM1-MrgX2 cells; format: cell-based
T1 construct: The used cell line is overexpressing MrgX2 in CHEM1 by recombinant expression; host or cells: CHEM1 (adherent rat cell line)
T1 sequence (Q96LB1 1-330): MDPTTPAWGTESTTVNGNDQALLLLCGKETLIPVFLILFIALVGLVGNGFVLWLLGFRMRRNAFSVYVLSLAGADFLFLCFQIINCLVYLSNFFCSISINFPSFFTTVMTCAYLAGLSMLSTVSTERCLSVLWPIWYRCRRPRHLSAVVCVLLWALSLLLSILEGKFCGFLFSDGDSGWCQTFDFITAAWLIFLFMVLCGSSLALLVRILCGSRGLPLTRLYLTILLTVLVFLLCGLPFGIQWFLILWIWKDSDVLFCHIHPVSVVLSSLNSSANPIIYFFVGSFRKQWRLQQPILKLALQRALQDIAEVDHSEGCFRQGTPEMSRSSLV
Description: (§1) The Fluo8 assay is a cell based assay format for the determination of intracellular Calcium release. Cell were seeded on microtiter plates and incubated under standard cell culture conditions. After 24 h the medium was removed and the cells were washed with PBS. The cells were incubated with loading buffer (40 ml PBS with 2 mM Calcium +800 μl brilliant black (2%) +732 μl pobenecid (0.5 M) in 1N NaOH +400 μl Pluronic (10%) in water +152 μl Fluo8 (5.7 μg/ml) in water) for 30 minutes.

CHEM1 cells = test: Fluo8 assay, Calcium release in CHEM1 (control) cells without MrgX2 overexpression; format: cell-based, rat; details: control cell line, same experimental conditions, result in words
Description: as §1, with “minutes. For fluorescence readout and compound testing a FLIPR tetra system was used according to the manufactures protocol (Molecular Devices, Calif. 94089-1136, USA).” for “minutes.”
The used cell lines CHEM1 and CHEM1-MrgX2 are adherent rat cell lines (Millipore, Billerica, Mass. 01821, USA) with were cultures under standard cell culture conditions.

human MrgX2 (human) = human MrgX2 (human) (UniProt Q96LB1); test: cell-based or functional assay
CXCR4 = biological target: T2, CXCR4 (Homo sapiens, UniProt P61073); test: CXCR4 activity assay (CRE-luciferase reporter); format: cell-based; details: result in words
T2 construct: expressed in transfected cells
Description: The CXCR4 receptor is a chemokine receptor and belongs to the family of G protein coupled receptors (GPCRs). Its only known endogenous ligand is stromal cell-derived factor 1 (SDF-1a). CXCR4 is a Gi coupled receptor. Its activation leads to a decrease of intracellular cAMP, which could be monitored by recombinant cAMP-responsive element (CRE) regulated luciferase expression. For the characterization of modulators of CXCR4 activity, stable cell lines expressing recombinant CXCR4 and a CRE-luciferase reporter vector were established. The cells were incubated with forskolin at a concentration of 0.5 μM, SDF-1a (at 20 nM) and test compounds and incubated for 4 h under standard cell culture conditions. Luciferase substrate was added and the luminescence was measured for 60 seconds.

T2 sequence (P61073 whole entry, species assumed): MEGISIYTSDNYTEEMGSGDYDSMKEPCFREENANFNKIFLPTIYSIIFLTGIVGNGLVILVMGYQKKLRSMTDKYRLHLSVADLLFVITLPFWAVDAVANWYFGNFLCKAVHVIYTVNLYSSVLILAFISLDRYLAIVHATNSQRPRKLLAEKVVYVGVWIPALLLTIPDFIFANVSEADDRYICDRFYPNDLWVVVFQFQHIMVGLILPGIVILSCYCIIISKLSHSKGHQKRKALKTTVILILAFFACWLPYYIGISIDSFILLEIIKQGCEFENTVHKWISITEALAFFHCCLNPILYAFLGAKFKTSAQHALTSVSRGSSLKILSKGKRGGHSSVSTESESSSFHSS

CC(C)C[C@H](NC(=O)[C@H](C)NC(=O)[C@H](Cc1c[nH]c2ccccc12)NC(=O)[C@H](CCCCN)NC(=O)[C@H](CC(N)=O)NC(=O)[C@H](Cc1c[nH]c2ccccc12)NC(=O)[C@H](CCCCN)NC(=O)[C@H](CCCCN)NC(=O)[C@H](CCCNC(=N)N)NC(=O)[C@H](Cc1ccccc1)NC(=O)[C@H](CCC(=O)O)NC(=O)[C@H](CO)NC(=O)[C@H](C)NC(=O)[C@@H](NC(=O)[C@H](CC(=O)O)NC(=O)[C@H](CC(C)C)NC(=O)[C@H](CCCNC(=N)N)NC(=O)[C@H](C)N)C(C)C)C(=O)N[C@@H](CO)C(=O)N[C@@H](CCCNC(=N)N)C(N)=O [PAMP, reference compound] (H-ARLDVASEFRKKWNKWALSR-NH2)
Calcium release / activity on MrgX2 (CHEM1-MrgX2) (human MrgX2; Fluo8 assay, result in words): dose dependent Calcium release
Calcium release on CHEM1 without MrgX2 (CHEM1 cells): not in CHEM1

NPY: peptide analyzed to characterize the specificity of CXCL14 to MrgX2 activation [reference compound]
Calcium release / activity on MrgX2 (CHEM1-MrgX2) (human MrgX2; Fluo8 assay, result in words): Neither NPY or angiotension II nor galanin show a dose dependent Calcium release
Calcium release on CHEM1 without MrgX2 (CHEM1 cells): Neither NPY or angiotension II nor galanin show a dose dependent Calcium release

PAMP (from UniProt P35318 22-185) (peptide)
EC50 of calcium release (Fluo8 assay) on CHEM1-MrgX2 cells (human MrgX2 (human)): 490 nM

angiotensin II (DRVYIHPF) [reference compound]
Calcium release / activity on MrgX2 (CHEM1-MrgX2) (human MrgX2; Fluo8 assay, result in words): Neither NPY or angiotension II nor galanin show a dose dependent Calcium release
Calcium release on CHEM1 without MrgX2 (CHEM1 cells): Neither NPY or angiotension II nor galanin show a dose dependent Calcium release

human CXCL14 (from UniProt O95715 35-111) (ligand)
EC50 of intracellular calcium release (Fluo8 assay) on CHEM1-MrgX2 cells (human MrgX2 (human)): 570 nM

B1: Chemokine (C-X-C motif) ligand 14 (protein, listed as Homo sapiens)
chain: SKCKCSRKGPKIRYSDVKKLEMKPKYPHCEEKMVIITTKSVSRYRGQEHCLHPKLQSTKRFIKWYNAWNEKRRVYEE
notes: small cytokine belonging to the CXC chemokine family
EC50 (human MrgX2; Calcium release, Fluo8 assay, CHEM1 overexpressing MrgX2): 570 nM
Calcium release / activity on MrgX2 (CHEM1-MrgX2) (human MrgX2; Fluo8 assay, result in words): activated by CXCL14 in a dose dependent matter; also recorded: specific agonist
activity on G-protein coupled receptor CXCR4 (CXCR4): antagonist
Calcium release on CHEM1 without MrgX2 (CHEM1 cells): no significant calcium release

B2: Mouse CXCL14: mouse CXCL14, amino acid sequence in FIG. 19; differs from human by two amino acid residues (protein)
chain: SKCKCSRKGPKIRYSDVKKLEMKPKYPHCEEKMVIVTTKSMSRYRGQEHCLHPKLQSTKRFIKWYNAWNEKRRVYEE
EC50 on CHEM1-MrgX2 compared with human CXCL14 (human MrgX2; Calcium release, result in words): comparable EC50
Calcium release / activity on MrgX2 (CHEM1-MrgX2) (human MrgX2; Fluo8 assay, result in words): dose dependent Calcium release
Calcium release on CHEM1 without MrgX2 (CHEM1 cells): not on CHEM1 without MrgX2
